The record followed here is patent publication US20220144937A1 (JIANGSU HENGRUI MEDICINE, published 2022).

Test [1] concerns the target T1, human IL-5 with his-tag (rhIL-5-his) (human, UniProt P05113 20-134).
T1 construct: It was expressed in HEK293 and purified from the supernatant; also called HuIL-5; recombinant human IL-5
T1 sequence: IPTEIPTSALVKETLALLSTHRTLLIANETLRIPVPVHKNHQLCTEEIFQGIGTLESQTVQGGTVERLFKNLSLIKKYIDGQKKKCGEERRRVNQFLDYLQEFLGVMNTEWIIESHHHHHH
The test is described as follows: competition ELISA: IL-5 coated, biotin-IL-5Rα (10 µg/ml) as competitor, antibody diluted. The method, then:
To identify the ability of IL-5 antibody to block IL-5 from binding to the extracellular region of recombinantly expressed IL-5α receptor protein, IL-5 (5 μg/ml in PBS) was coated on an ELISA plate and incubated at 37° C. for 1 hour; the liquid was removed, 200 μl/well of 5% skimmed milk blocking solution diluted with PBS was added, and incubated for 2.5 hours in a 37° C. incubator for blocking. After blocking, the blocking solution was removed and the plate was washed with PBST buffer (pH 7.4 PBS comprising 0.05% Tween-20) for 5 times; 25 μl of 10 μg/ml IL-5Rα (in 1% BSA) labeled by a biotin labeling kit (Tojin Chemical, LK03) was added, and then 25 μl of gradient-diluted antibody was added (the antibody competed with IL-5Rα for the binding with IL-5) and incubated at 37° C. for 1 hour. After the incubation, the reaction solution in the microtiter plate was removed, the plate was washed for 5 times with PBST, added with 50 μl/well of Streptavidin-Peroxidase Polymer (Sigma, 52438-250UG) diluted with sample dilution solution at 1:600 and incubated for 1 hour at 37° C.

For test [2], the target named is T1, human IL-5 with his-tag (rhIL-5-his). The test is described as follows: Biacore T200, antibody captured on protein A chip, antigen in flow, 1:1 Langmuir. On the procedure:
(§1) The affinity of the murine IL-5 antibody to be tested with human IL-5 was measured by Biacore T200 (GE) instrument.
(§2) The protein A biosensor chip was used to affinity capture of the molecules to be tested, and then the antigen (recombinant human and cyno IL-5 prepared in Example 1) flowed through the surface of the chip, and the reaction signal was detected in real time with the Biacore T200 instrument to obtain the binding and dissociation curves. After the dissociation of each experimental cycle was completed, the biosensor chip was washed and regenerated with glycine-hydrochloric acid regeneration solution (pH 1.5). BIA evaluation version 4.1 GE software was used to fit the data against (1:1) Langmuir model, and the affinity value was obtained and shown in Table 13.
Background: Surface plasmon resonance follows binding to a sensor surface in real time, without labels.

For another test, the target named is T2, cyno IL-5 with his-tag (cyno (paragraph 156 says rhesus), UniProt P48093 20-134 (rhesus entry)).
T2 construct: also called rhesus IL-5 with His-tag; monkey IL-5
T2 sequence: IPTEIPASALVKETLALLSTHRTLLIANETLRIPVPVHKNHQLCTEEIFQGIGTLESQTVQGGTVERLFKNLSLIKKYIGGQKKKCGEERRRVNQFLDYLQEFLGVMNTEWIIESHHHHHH
The description is as above. The method, then:
as §1, §2

Test [3] concerns the target T1, human IL-5 with his-tag (rhIL-5-his). The test is described as follows: Biacore. The method, then:
as §1, §2

B1: mAb1705 (antibody, V domains shown)
VH: EVQLVESGGGLVQPGRSLKLSCTASGFTFSHYYMAWVRQAPKKGLEWVTSISYEGDITYYGDSVKGRFTISRDNAKSTLYLQMNSLRSEDTATYYCASQTLRESFDYWGQGVMVTVSS
VL: DIQMTQSPSSMSVSLGDRVTITCRASQDIANYLSWYQQKIARSPKLVIYGTSNLEVGVPSRFSGSRSGSDYSLTINTLESEDTGIYFCLQDKEFPRTFGGGTRLELK
notes: Murine hybridoma antibody
B1 gave an IC50 in test [1] of 0.42 µg/mL. The Kd is 0.0727 nM in test [2], 0.205 nM with cyno IL-5 with his-tag and 0.0727 nM in test [3].

B2: mAb1706 (antibody, V domains shown)
VH: EVQLVESGGGLVQPGRSLKLSCAASGFTFSHYYMAWVRQAPKKGLEWVTSINYEGNSAYYGDSVKGRFTISRDNAKSTLYLQMDSLRSEDTATYYCATETLRESLDYWGQGVMVTVSS
VL: DIQMTQSPSSMSVSLGDRVTITCRASQDIGNYLSWYQQKLGKSPKLMIHSASNLEVGVPSRFSGSRSGSDYSLTINTLESEDPGIYFCLQHKQFPRTFGGGTKLELK
notes: Murine hybridoma antibody
Take B2: the IC50 in test [1] amounted to 0.4 µg/mL. In addition, the Kd in test [2] stood at 0.0383 nM; in the test with cyno IL-5 with his-tag it was 0.277 nM; in test [3] it was 0.0383 nM.

In general, IC50 refers to the concentration at which inhibition is half-maximal. Read a high IC50 as weaker potency. The term Kd denotes the constant that tells how readily two partners part at equilibrium. Higher therefore signals weaker binding.
